Target: CCR3 (UniProt P51677)
Sequence (P51677 whole entry): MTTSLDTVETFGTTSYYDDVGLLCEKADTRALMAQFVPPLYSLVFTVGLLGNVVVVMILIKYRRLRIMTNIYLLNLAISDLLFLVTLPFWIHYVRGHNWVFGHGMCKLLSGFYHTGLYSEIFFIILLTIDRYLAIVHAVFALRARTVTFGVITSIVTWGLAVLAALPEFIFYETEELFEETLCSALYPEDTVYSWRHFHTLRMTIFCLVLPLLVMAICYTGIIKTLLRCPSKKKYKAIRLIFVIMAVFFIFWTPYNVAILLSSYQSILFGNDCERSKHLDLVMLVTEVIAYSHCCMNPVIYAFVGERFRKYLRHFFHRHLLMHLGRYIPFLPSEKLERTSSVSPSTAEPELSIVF

IC50 for inhibition of migration of L1.2/CCR3 transfectants to 1 nM CCL11: 168 nM
B1: CCL18-6His (ligand)
chain: AQVGTNKELCCLVYTSWQIPQKFIVDYSETSPQCPKPGVILLTKRGRQICADPNKKWVQKYISDLKLNA
